# Results as given in patent US10683486B2, “Methods for producing hepatocytes” (BioLamina AB, priority 2015, dated 2020).
# Tests used:
# [1] = tested on: stem-cell derived hepatocytes; assay: Phase contrast morphology and MRP1/HNF4a co-immunostaining (functional organization); format: cell-based, human; settings: day 24
# Description: FIG. 8 is a set of nine photomicrographs from day 24 of differentiation.
# The phase contrast images also indicated hepatocytes were arranged in lobule-like structures within the culture dish, reminiscent of regenerating liver.
# Around these lobule structures, positive staining for MRP-1, an important basal membrane marker, was detected.
# hESC-derived hepatocytes = assay: Immunostaining of hepatocyte markers and cytochrome P450 expression (hepatocyte maturation); format: cell-based, human
# Method: Differentiation was initiated at 40% confluence, by replacing serum-free medium mTESR1 (Stem Cell Technologies) with endoderm differentiation medium—RPMI 1640 containing 1×B27 (Life Technologies), 100 ng/mL Activin A (PeproTech) and 50 ng/mL Wnt3a (R&D). The medium was changed every 24 hours, for 72 hours. On day 4, endoderm differentiation medium was replaced with hepatoblast differentiation medium, and this was renewed every second day for a further five days. The medium consisted of KO-DMEM (Life Technologies), Serum Replacement (Life Technologies), 0.5% Glutamax (Life Technologies), 1% non-essential amino acids (Life Technologies), 0.2% β-mercaptoethanol (Life Technologies) and 1% dimethyl sulofxide (Sigma) for 5 days. At Day 9, differentiating cells were cultured in hepatocyte maturation medium HepatoZYME (Life Technologies) containing 1% Glutamax (Life Technologies), supplemented with 10 ng/mL hepatocyte growth factor (Peprotech) and 20 ng/mL oncostatin m (Peprotech).
# (§1) Immunocytochemistry analysis was subsequently performed on hESC-derived hepatocytes. Cell cultures were fixed in 100% ice-cold methanol at −20 degrees Celsius for 30 minutes, and adjacent cells were pre-washed twice with PBS buffer at room temperature. Cell monolayers were blocked with 0.1% PBS-Tween solution containing 10% bovine serum albumin for 1 hour. Subsequently, the monolayers were incubated with primary antibodies diluted in PBS-0.1% Tween/1% BSA at 4 degrees Celsius overnight. After 24 hours, the primary antibodies were removed and the fixed monolayers were washed three times with PBS-0.1% Tween/1% BSA. Cells were incubated with appropriate secondary antibodies diluted in PBS-0.1% Tween/1% BSA for one hour at room temperature and washed with three times with PBS. Cultures were then mounted with PermaFluor™ Aqueous Mounting Medium and counterstained with NucBlue Hoescht 33342. The cells were imaged with the Zeiss Axio Observer Z1 microscope with LD PlanNeoFluar objective lenses, and a Zeiss AxioCamMR3 camera was used for image acquisition. The images were processed through Zeiss Axiovision SE 64 Rel 4.8 and analyzed using Zeiss Axiovision version 4.9.1.0. The percentage of positive cells and standard deviation was estimated from at least five random fields of view.
# Post-hepatoblast specification, cell cultures were differentiated toward hepatocytes. Hepatocyte specification was assessed by immunostaining for albumin (ALB), E-cadherin (E CAD), cellular proliferation marker (Ki67), cytochrome p450 2D6 (CYP2D6), and cytochrome p450 3A4 (CYP3A4).
# FIG. 5 is a set of nine photomicrographs of hepatic cells on day 18 of differentiation.
# Given that cell organisation and cell division are important factors in hepatocyte function, hepatocyte metabolic capacity in vitro was studied. Stem cell derived hepatocytes were first examined for cytochrome P450 expression using well characterised antisera. CYP3A and CYP1A2 activity were measured from days 16-26 using pGlo technology. CYP activity was expressed as relative light units (RLU) per milliliter of media per milligram of protein. Levels of significance were measured by student t-test.
# FIG. 6 is a set of six photomicrographs and two bar graphs of gene expression in hepatic cells.
# [2] = tested on: H9 human embryonic stem cells (hESCs); assay: Immunofluorescent staining of OCT4 and Nanog in pluripotent stem cells on the substrates prior to differentiation; format: cell-based; settings: 24 hours post-replating
# Method: H9 human embryonic stem cells (hESCs) were cultured and maintained in a humidified 37° C., 5% CO2 incubator. Three different substrates were then prepared in 96-well plates. The first substrate was pre-coated with Matrigel® (MG), and served as a control. The second substrate was coated with 5 micrograms per square centimeter (μg/cm^2) of laminin-521 (LN-521).
# as §1, with “Immunocytochemistry analysis was subsequently performed on hESC-derived hepatocytes.” left out, “The cells were imaged with the Zeiss Axio Observer Z1 microscope with LD PlanNeoFluar objective lenses, and a Zeiss AxioCamMR3 camera was used for image acquisition.” left out, “The percentage of positive cells and standard deviation was estimated from at least five random fields of view.” left out
# MAN11 cells = assay: Immunostaining of ALB and CYP3A in MAN11 derived cells (Example 5); format: cell-based, human; settings: MAN11, Day 18, Cameron protocol
# Method: MAN11 cells, another GMP grade cell line, were plated on three different substrates. The first substrate was Matrigel® (MG), and served as a control. The second substrate was coated with 5 micrograms per square centimeter (μg/cm^2) of laminin-521 (LN-521). […] The cells were then differentiated according to the Cameron protocol.
# FIG. 16 is a set of 15 photomicrographs at 10× magnification, organized into three columns and five rows. […] Row A is a set of phase contrast images of morphology. The scale bars are 200 μm. Row B is a set of photomicrographs showing the immunofluorescent staining of albumin (ALB) on the three different matrices. Row C is a set of photomicrographs showing the immunofluorescent staining of cytochrome P450 3A (CYP3A). Row D is a set of photomicrographs showing the immunofluorescent staining of multidrug resistance protein 1 (MRP1). Row E is a set of photomicrographs showing immunoglobulin G control staining for sheep, mouse, and rabbit antisera. All of these photos were taken on Day 18.
substance,measurement,setting,value
"LN-521: substrate coated with 5 μg/cm^2 of laminin-521, the protein formed by joining α5, β2 and γ1 chains","MRP-1 staining, hepatocyte organisation",[1],exhibited networks of organised hepatocytes in vitro
same,"Albumin, percentage of positive cells and standard deviation",hESC-derived hepatocytes; day 18 of differentiation,89.5% ± 8.7
same,"E CAD, percentage of positive cells and standard deviation",hESC-derived hepatocytes; day 18 of differentiation,67.4% ± 4.4
same,"Ki67, percentage of positive cells and standard deviation","hESC-derived hepatocytes; day 18 of differentiation, proliferation marker",17.4% ± 6.2
same,"CYP2D6, percentage of positive cells and standard deviation","hESC-derived hepatocytes; immunostaining, FIG. 6",85.7% ± 5.7
same,"CYP3A, percentage of positive cells and standard deviation","hESC-derived hepatocytes; immunostaining, FIG. 6",91.3% ± 3.7
same,Expression Levels Nanog,[2],88.7% ± 5.4
same,Expression Levels OCT4,[2],93.2% ± 5.9
same,"ALB, percentage of positive cells and standard deviation",MAN11 cells,89.2% ± 6.0
same,"CYP3A, percentage of positive cells and standard deviation",MAN11 cells,90.8% ± 9.9
